Data on one molecule can be found in paper PMC6488673, “Crystal structure of the Lin28-interacting module of human terminal uridylyltransferase that regulates let-7 expression”.

The target in this data set is T1, hTUT4_N;hLin28A (human;human, UniProt Q5TAX3;Q9H9Z2 253-578+611-723;1-209, internal_change|).
T1 sequence 1: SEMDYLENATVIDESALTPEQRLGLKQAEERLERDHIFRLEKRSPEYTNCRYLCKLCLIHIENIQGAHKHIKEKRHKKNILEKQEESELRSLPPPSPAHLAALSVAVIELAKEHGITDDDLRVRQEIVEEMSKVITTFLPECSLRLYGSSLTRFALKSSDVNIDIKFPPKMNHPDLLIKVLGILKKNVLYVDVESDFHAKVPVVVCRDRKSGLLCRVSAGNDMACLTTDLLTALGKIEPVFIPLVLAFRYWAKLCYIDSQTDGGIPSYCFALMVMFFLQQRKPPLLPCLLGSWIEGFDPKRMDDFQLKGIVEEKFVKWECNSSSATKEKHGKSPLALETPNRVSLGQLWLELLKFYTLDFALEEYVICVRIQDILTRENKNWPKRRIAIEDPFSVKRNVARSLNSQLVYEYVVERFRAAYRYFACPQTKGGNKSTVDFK
T1 sequence 2: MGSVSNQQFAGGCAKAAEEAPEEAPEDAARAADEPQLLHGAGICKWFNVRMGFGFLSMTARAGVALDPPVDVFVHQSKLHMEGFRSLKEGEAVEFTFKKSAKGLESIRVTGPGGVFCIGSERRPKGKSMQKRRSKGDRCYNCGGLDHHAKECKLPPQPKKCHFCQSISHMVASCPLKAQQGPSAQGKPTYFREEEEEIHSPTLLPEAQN
Kind of data set: EMSA; ternary complex; 300 nM each protein, 100 nM RNA; EMSA: 50 mM Tris-HCl pH 8.5, 100 mM NaCl, 10 mM MgCl2, 10 mM beta-mercaptoethanol, 10% glycerol, 10 min, room temperature; Tb(III) footprinting: same salts, 5%. Conditions: protein: recombinant;recombinant; tags: C-terminal expression tag, residues 724-731 (pET22b, XhoI, Ni-NTA);N-terminal His tag (pET28b; Ni-NTA purified); copies: 1;1; label: none in EMSA (ethidium bromide stain); hairpin.

B1: pre-let-7a-1 (structured_RNA)
RNA: UGAGGUAGUAGGUUGUAUAGUUUUAGGGUCACACCCACCACUGGGAGAUAACUAUACAAUCUACUGUCUUUC
In the case of B1, the binding result is reported as “binds”.
